Laboratory results published in patent US20240342246A1 (YALE UNIVERSITY, published 2024).

Target: IL-12 receptor β1 (IL-12Rβ1) (human, UniProt P42701 24-662)
Test: cell-based or functional assay

Binder | EC50 of STAT4 phosphorylation in human NK cells (flow cytometry, FIG. 3A) [µg/mL] | EC50 of STAT4 phosphorylation in human NK cells (flow cytometry, FIG. 3B) [µg/mL]
wild-type (WT) IL-12 (ligand) chain 1: IWELKKDVYVVELDWYPDAPGEMVVLTCDTPEEDGITWTLDQSSEVLGSGKTLTIQVKEFGDAGQYTCHKGGEVLSHSLLLLHKKEDGIWSTDILKDQKEPKNKTFLRCEAKNYSGRFTCWWLTTISTDLTFSVKSSRGSSDPQGVTCGAATLSAERVRGDNKEYEYSVECQEDSACPAAEESLPIEVMVDAVHKLKYENYTSSFFIRDIIKPDPPKNLQLKPLKNSRQVEVSWEYPDTWSTPHSYFSLTFCVQVQGKSKREKKDRVFTDKTSATVICRKNASISVRAQDRYYSSSWSEWASVPCS chain 2: RNLPVATPDPGMFPCLHHSQNLLRAVSNMLQKARQTLEFYPCTSEEIDHEDITKDKTSTVEACLPLELTKNESCLNSRETSFITNGSCLASRKTSFMMALCLSSIYEDLKMYQVEFKTMNAKLLMDPKRQIFLDQNMLAVIDELMQALNFNSETVPQKSSLEEPDFYKTKIKLCILLHAFRIRAVTIDRVMSYLNAS | 0.0408 | 0.0574
IL-12 H216A/K217A/K219A triple mutant (HKK) (ligand) chain 1: IWELKKDVYVVELDWYPDAPGEMVVLTCDTPEEDGITWTLDQSSEVLGSGKTLTIQVKEFGDAGQYTCHKGGEVLSHSLLLLHKKEDGIWSTDILKDQKEPKNKTFLRCEAKNYSGRFTCWWLTTISTDLTFSVKSSRGSSDPQGVTCGAATLSAERVRGDNKEYEYSVECQEDSACPAAEESLPIEVMVDAVAALAYENYTSSFFIRDIIKPDPPKNLQLKPLKNSRQVEVSWEYPDTWSTPHSYFSLTFCVQVQGKSKREKKDRVFTDKTSATVICRKNASISVRAQDRYYSSSWSEWASVPCS chain 2: RNLPVATPDPGMFPCLHHSQNLLRAVSNMLQKARQTLEFYPCTSEEIDHEDITKDKTSTVEACLPLELTKNESCLNSRETSFITNGSCLASRKTSFMMALCLSSIYEDLKMYQVEFKTMNAKLLMDPKRQIFLDQNMLAVIDELMQALNFNSETVPQKSSLEEPDFYKTKIKLCILLHAFRIRAVTIDRVMSYLNAS | 0.839 | 
H216A/K219A IL-12 (IL-12p40 HK219 with WT IL-12p35) (ligand) chain 1: IWELKKDVYVVELDWYPDAPGEMVVLTCDTPEEDGITWTLDQSSEVLGSGKTLTIQVKEFGDAGQYTCHKGGEVLSHSLLLLHKKEDGIWSTDILKDQKEPKNKTFLRCEAKNYSGRFTCWWLTTISTDLTFSVKSSRGSSDPQGVTCGAATLSAERVRGDNKEYEYSVECQEDSACPAAEESLPIEVMVDAVAKLAYENYTSSFFIRDIIKPDPPKNLQLKPLKNSRQVEVSWEYPDTWSTPHSYFSLTFCVQVQGKSKREKKDRVFTDKTSATVICRKNASISVRAQDRYYSSSWSEWASVPCS chain 2: RNLPVATPDPGMFPCLHHSQNLLRAVSNMLQKARQTLEFYPCTSEEIDHEDITKDKTSTVEACLPLELTKNESCLNSRETSFITNGSCLASRKTSFMMALCLSSIYEDLKMYQVEFKTMNAKLLMDPKRQIFLDQNMLAVIDELMQALNFNSETVPQKSSLEEPDFYKTKIKLCILLHAFRIRAVTIDRVMSYLNAS |  | 0.29
